Laboratory results taken from PMC6400556 (The Journal of Cell Biology, 2019).

B1: His-Sac1 residues 1–188 (domain or fragment, human, UniProt Q9NTJ5 1-188, looked up)
chain: MATAAYEQLKLHITPEKFYVEACDDGADDVLTIDRVSTEVTLAVKKDVPPSAVTRPIFGILGTIHLVAGNYLIVITKKIKVGEFFSHVVWKATDFDVLSYKKTMLHLTDIQLQDNKTFLAMLNHVLNVDGFYFSTTYDLTHTLQRLSNTSPEFQEMSLLERADQRFVWNGHLLRELSAQPEVHRFALP
B2: GST-FAPP1 residues 1–100 (domain or fragment, human, UniProt Q9HB20 1-100, looked up)
chain: MEGVLYKWTNYLTGWQPRWFVLDNGILSYYDSQDDVCKGSKGSIKMAVCEIKVHSADNTRMELIIPGEQHFYMKAVNAAERQRWLVALGSSKACLTDTRT

Experiments:
[1] = target: T1, GST-FAPP1 full length (four-phosphate-adaptor-protein-1) (human, UniProt Q9HB20 1-300); test: pull-down
T1 sequence (looked up): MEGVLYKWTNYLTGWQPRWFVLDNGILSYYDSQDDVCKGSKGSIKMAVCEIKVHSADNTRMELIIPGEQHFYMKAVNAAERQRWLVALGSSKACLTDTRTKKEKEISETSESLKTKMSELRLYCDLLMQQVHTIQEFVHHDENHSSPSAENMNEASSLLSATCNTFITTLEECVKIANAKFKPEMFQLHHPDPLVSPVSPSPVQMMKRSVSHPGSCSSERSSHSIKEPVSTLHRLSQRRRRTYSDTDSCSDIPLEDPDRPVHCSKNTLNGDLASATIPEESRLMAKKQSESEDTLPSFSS

His-Sac1 residues 1–188 = target: B1; test: pull-down

| Binder | binding result [1] | binding result (His-Sac1 residues 1–188) |
| --- | --- | --- |
| B1 | binds |  |
| B2 |  | binds |
